We go through 3 molecules from PMC4017264 (Molecular Cell, 2014).

Assay [1] concerns the target FITC-Ahx-labeled OTULIN PIM peptide (aa 49–67) (UniProt Q96BN8). The experiment in a line: fluorescence polarisation; serially diluted PUB domains and HOIP variants mixed with an equal volume of 100 nM FITC-Ahx-labeled peptide; one-site binding model; triplicate. In general terms: Polarisation of emitted light reports the rotation of a fluorescent probe.
Assay [2] concerns HOIP (Met1-linked polyUb). The experiment in a line: HOIP autoubiquitination, purification of endogenous Met1-polyUb conjugates (M1-SUB pulldown). In kind it is cell-based. To be noted: U2OS/NOD2 cells, ectopic OTULIN variants, basal, identical with L18-MDP or TNF, immunoblot. An excerpt:
Antibodies and affinity resin
The following antibodies and reagents were used according to the manufacturers’ instructions: anti-HA-agarose resin (A2095), anti-V5-agarose resin (A7345) and rabbit polyclonal anti-HOIP/RNF31 (SAB2102031, Sigma-Aldrich), rat monoclonal anti-HA (#11867423991, Roche Diagnostics, Burgess Hill, UK), mouse monoclonal anti-ubiquitin (IMG-5021, Imgenex, San Diego, CA), rabbit polyclonal anti-SHARPIN (#14626-1-AP, ProteinTech, Chicago, IL), rabbit polyclonal anti-RBCK1/HOIL-1 (NBP1-88301, Novus Biologicals, Littleton, CO), mouse monoclonal anti-V5 (MCA1360, AbD Serotec, Kidlington, UK), mouse monoclonal anti-$-actin (MAB1501, Chemicon, Millipore, Billerica, MA), rabbit polyclonal anti-HOIL-1, rabbit polyclonal anti-HOIP/RNF31
(Sigma), mouse monoclonal anti-p97 (Thermo Scientific). The
Fam105B/OTULIN antibody was previously described (Keusekotten et al., 2013). […]
HEK293ET, RPE1 and U2OS cells were collected, washed with PBS and lysed on ice for 30 minutes in SEC cell extraction buffer (150 mM NaCl, 50 mM Tris-HCl pH 7.4, 1 mM MgCl2, 1 mM DTT, 0.3% NP40, protease and (Roche)). […] In total 3.1 mg protein extract was analyzed on a Superdex 200 10/300 GL column (GE Life Sciences). […]
(In general: In western blotting, separated proteins are transferred to a membrane and probed.)

The target in assay [3] is T1, HOIP PUB domain (aa 5–180) (UniProt Q96EP0 5-180).
T1 construct: HOIP, residues 5-180, PUB domain; also called HOIP 5–180; slightly truncated HOIP PUB domain construct
T1 sequence (looked up): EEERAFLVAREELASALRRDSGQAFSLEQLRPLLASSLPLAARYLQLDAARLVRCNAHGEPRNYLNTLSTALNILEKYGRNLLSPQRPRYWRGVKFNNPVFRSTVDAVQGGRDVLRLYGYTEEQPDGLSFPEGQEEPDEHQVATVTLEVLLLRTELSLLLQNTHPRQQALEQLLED
The experiment in a line: crystal structure; HOIP 5–180 with OTULIN 49–67, 2.0 Å, space group P 6(1), two molecules in the asymmetric unit. To be noted: both partners purified.

As to “HOIP extended PUB domain (aa 1–184) (from UniProt Q96EP0 1-184) (domain or fragment)”, the dissociation constant (Kd) in assay [1] is 180 nM.

For “inactive OTULIN with a mutation in the PIM (Y56A): catalytically inactive OTULIN (C129A) with PIM mutation Y56A”, the “HOIP autoubiquitination with Met1-linked polyUb (in words)” value in assay [2] is “did not lead to HOIP autoubiquitination”.

B1: unlabeled OTULIN PIM peptide (aa 49–67) (peptide, UniProt Q96BN8 49-67, looked up)
peptide: AEHEEDMYRAADEIEKEKE
notes: OTULIN, residues 49-67; Called unlabeled for NMR; also called OTULIN 49–67
With B1, the binding result in assay [3] is given as “binds”.

A word on the Kd: it is the equilibrium constant for the complex coming apart. A lower Kd goes with a tighter complex.
